According to article PMC9228748, “The Denaturant- and Mutation-Induced Disassembly of Pseudomonas aeruginosa Hexameric Hfq Y55W Mutant” (Molecules, 2022):
Values joined by “and” are separate entries in the source; they are usually repeats but may differ in a detail not shown here. Identical values can stand only once.

How the values were obtained:
[1] = target: the molecule itself; test: dynamic light scattering; pH 1.4, 100 µM protein (monomer), 25 °C
[2] = target: the molecule itself; test: crystal structure; hanging drop vapor diffusion at 25 °C; 7% PEG 2000 MME, 2% MPD, 50 mM Tris-HCl pH 6.5; asymmetric part holds three subunits, hexamer by crystallographic symmetry

B1: Pseudomonas aeruginosa Hfq Y55W mutant (natural protein)
chain: MSKGHSLQDPYLNTLRKERVPVSIYLVNGIKLQGQIESFDQFVILLKNTVSQMVWKHAISTVVPSRPVRLPSGDQPAEPGNA
notes: also called Y55W (hexamer); Pae Hfq Y55W
- stoichiometry N [1]: 3 and 2
- stoichiometry N [2]: 6
